The values below come from patent publication US20140363438A1, “NEUREGULIN ANTIBODIES AND USES THEREOF” (Genentech, Inc., priority 2011, published 2014).

For experiment [1], the system named is Calu3 tumor model. The experiment in a line: Calu3 xenograft after chemotherapy: tumor response and NRG1 expression in residual tumor cells (qPCR). Format: in vivo, human. The protocol: (§1) RNA was isolated using the Qiagen RNeasy Micro Kit, Complementary DNA was prepared from total RNA using ABI high fidelity kit according to manufacturer's instructions. NRG1alpha, NRG1beta, HER3, HER4 expression was determined using ABI gene specific primers/probe by quantitative real time PCR (ABI 7500). Gene expression was normalized using GAPDH or RAB14 house keeping genes.
(§2) Tumor cells (10-20 million) were transplanted into right flank of athymic nude mice. When tumor size reached ˜200 mm^3, the mice were divided into different treatment groups. Mice were then treated with either vehicle or chemotherapy (paclitaxel, i.v.+cisplatin, i.p.) for the initial studies. The chemotherapy dosing regimen was paclitaxel 20 mg/kg i.v. every other day for 5 doses and cisplatin 5 mg/kg i.p. on days 1 and 7 for the Calu3 model and days 1 and 14 for the H441 model. Regressed tumors and time matched vehicle controls were collected at least 1 week after the last dose of chemo. Tumors were dissociated using dispase/collagenase and samples were FACS sorted to collect the GFP positive tumor cells. For the NRG1 knockdown studies, the treatment groups were: sucrose, doxycycline (dox), chemotherapy+sucrose, and chemotherapy+doxycycline. […]
(§3) The expression of NRG1 in TRICs isolated from the Calu3 and H441 xenograft models was analyzed. […]
In general terms: In xenograft studies the graft and the host belong to different species.

Experiment [2] relates to H441 tumor model. Briefly: H441 xenograft after chemotherapy: tumor response and NRG1 expression in residual tumor cells (qPCR). In kind it is in vivo, human. As for the experimental part:
as §1, §2, §3

In experiment [3] the target is T1, Recombinant human NRG1-α EGF domain (R&D Systems, cat#296-HR/CF) (human, UniProt Q02297 177-241).
T1 construct: also called NRG1-alpha; HRG1α
T1 sequence: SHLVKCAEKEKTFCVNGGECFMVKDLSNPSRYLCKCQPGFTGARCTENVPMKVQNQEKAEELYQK
Briefly: SPR (BIAcore T100), IgG captured by anti-human Fc, 250 nM NRG1α injected; sensorgram. The protocol: (§4) Binding affinities of anti-NRG1 IgGs were measured by Surface Plasmon Resonance (SRP) using a BIAcore™-T100 instrument. Anti-NRG1 human IgGs were captured by mouse anti-human Fc antibody (GE Healthcare, cat# BR-1008-39) coated on CM5 biosensor chips to achieve approximately 1000 response units (RU). […] Association rates (kₒₙ) and dissociation rates (koff) were calculated using a simple one-to-one Langmuir binding model (BIAcore Evaluation Software version 3.2). The equilibrium dissociation constant (KD) was calculated as the ratio koff/kₒₙ.
In general terms: Surface plasmon resonance follows binding to a sensor surface in real time, without labels.

Experiment [4] concerns the target T2, NRG1β (Homo sapiens, UniProt Q02297).
T2 sequence (Q02297 177-244 isoform Q02297-6 limits assumed): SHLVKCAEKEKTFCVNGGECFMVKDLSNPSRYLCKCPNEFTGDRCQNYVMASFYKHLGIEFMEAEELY
The experiment in a line: Inhibition of 125I-HRG (NRG1β) binding to HER3-ECD-Fc. To be noted: affinity matured clones of 538.24, FIG. 7. As for the experimental part: The antibodies were tested for their ability to inhibit NRG1β binding to HER3-Fc. 125I-HRG was generated at Genentech as described previously (Sliwkowski et al JBC 1994). Binding assays were performed in Nunc break-apart strip wells (Thermo-Fisher Scientific, Rochester, N.Y.). Plates were coated at 4° C. overnight with 250 ng/well of HER3-ECD-Fc fusion protein in carbonate buffer (pH 9.6). Plates were rinsed twice with wash buffer (PBS/0.05% Tween 20) and blocked with 100 μL PBS including 1% bovine serum albumin (BSA) for 30 minutes. Increasing concentrations of anti-NRG1 antibodies in RPMI 1640 medium (Invitrogen; Carlsbad, Calif.) with 0.2% BSA were pre-bound to HER3-ECD-Fc. 125I-HRG (specific activity: 266 mCi/mg, 75,000 cpm/well) was added immediately after in a total assay volume of 130 μL. Plates were incubated for 2 hours at room temperature, rinsed twice, and individual wells were counted using a 100 Series Iso Data γ-counter. Samples were assayed in triplicates. Plotting was performed using KaleidaGraph 3.6 software. […]
The affinity matured variants were tested for their ability to block HRGβ binding to HER3-Fc. […] Plates were incubated for 2 hours at room temperature, rinsed twice, and individual wells were counted using a 100 Series Iso Data γ-counter. […]

Experiment [5] addresses T3, Recombinant human Neuregulin 1-beta (rhNRG1b, Genentech) (human, UniProt Q02297 1-640).
T3 sequence: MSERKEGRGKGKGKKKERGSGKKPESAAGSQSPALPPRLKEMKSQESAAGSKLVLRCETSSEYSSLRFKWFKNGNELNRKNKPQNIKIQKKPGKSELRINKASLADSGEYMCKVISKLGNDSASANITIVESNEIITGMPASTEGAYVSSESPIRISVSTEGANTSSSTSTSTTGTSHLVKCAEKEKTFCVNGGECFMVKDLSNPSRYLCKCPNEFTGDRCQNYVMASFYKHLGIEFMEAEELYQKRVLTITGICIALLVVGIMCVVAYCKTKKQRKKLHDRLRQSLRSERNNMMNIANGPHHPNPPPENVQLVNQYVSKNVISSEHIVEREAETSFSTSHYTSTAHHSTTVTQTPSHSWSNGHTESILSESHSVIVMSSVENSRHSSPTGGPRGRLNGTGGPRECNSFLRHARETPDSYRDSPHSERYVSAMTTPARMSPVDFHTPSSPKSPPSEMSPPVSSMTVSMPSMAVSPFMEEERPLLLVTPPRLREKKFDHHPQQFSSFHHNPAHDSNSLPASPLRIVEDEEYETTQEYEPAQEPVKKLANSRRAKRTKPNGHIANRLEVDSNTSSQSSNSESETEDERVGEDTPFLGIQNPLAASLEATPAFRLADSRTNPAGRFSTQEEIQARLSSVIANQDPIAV
The experiment in a line: cell-based or functional assay.

In experiment [6] the target is T1, Recombinant human NRG1-α EGF domain …. Briefly: cell-based or functional assay.
Experiment [7] shares this target. The experiment in a line: SPR (BIAcore T100), IgG captured by anti-human Fc, NRG1α injected; sensorgram shown for 6.25 nM NRG-alpha. As for the experimental part:
as §4

The target of experiment [8] is T4, Betacellulin (BTC) (UniProt P35070 32-111).
T4 sequence (looked up): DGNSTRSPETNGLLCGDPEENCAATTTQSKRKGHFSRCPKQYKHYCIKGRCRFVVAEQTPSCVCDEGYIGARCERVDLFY
The experiment in a line: ELISA.

The target in experiment [9] is EGF (UniProt P01133 971-1023). The experiment in a line: ELISA. (In general: An ELISA detects its analyte on a solid surface through an enzyme-linked reagent.)
EGF, sequence (P01133 971-1023 limits assumed): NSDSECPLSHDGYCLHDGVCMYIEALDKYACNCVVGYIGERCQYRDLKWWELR
In experiment [10] the target is HB-EGF (UniProt Q99075 63-148, limits assumed). The experiment in a line: ELISA.
HB-EGF, sequence (Q99075 63-148 limits assumed): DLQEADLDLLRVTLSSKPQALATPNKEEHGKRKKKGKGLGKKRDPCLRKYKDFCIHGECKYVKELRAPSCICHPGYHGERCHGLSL
Experiment [11] deals with T5, Recombinant human NRG1-β ECD domain (R&D Systems, cat#377-HB/CF) (human, UniProt Q02297-11 121-191, limits assumed).
T5 construct: also called NRG1-beta; HRG1β
T5 sequence: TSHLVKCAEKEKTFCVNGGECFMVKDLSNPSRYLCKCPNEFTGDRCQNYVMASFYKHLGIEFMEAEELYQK
The experiment in a line: SPR (BIAcore T100), IgG captured by anti-human Fc, NRG1β injected; sensorgram shown for 6.25 nM NRG-beta. As for the experimental part:
as §4

As usually defined, the Kd is the equilibrium constant for the complex coming apart. For orientation: koff means the rate constant with which the complex falls apart. For orientation: kon means the second-order rate constant of association.

As for `CCC1=C[C@@H]2CN(C1)Cc1c([nH]c3ccccc13)[C@@](C(=O)OC)(c1cc3c(cc1OC)N(C)[C@H]1[C@@](O)(C(=O)OC)[C@H](OC(C)=O)[C@]4(CC)C=CCN5CC[C@]31[C@@H]54)C2` [vinorelbine], the “tumor response to treatment” value in experiment [1] and in experiment [2] was “continued to grow” throughout.

For the molecule `Nc1ccn([C@@H]2O[C@H](CO)[C@@H](O)C2(F)F)c(=O)n1` [gemcitabine], the “tumor response to treatment” value in [1] and in experiment [2] was “tumor regression” each time.

B1: 538.24.38 (antibody, V domains shown)
VH: EVQLVESGGGLVQPGGSLRLSCAASGFTFSGTWIHWVRQAPGKGLEWVAAITPADGSTNYADSVKGRFTISADTSKNTAYLQMNSLRAEDTAVYYCATYMFAMDYWGQGTLVTVSS
VL: DIQMTQSPSSLSASVGDRVTITCRASQDVSTAVAWYQQKPGKAPKLLIYSASFLYSGVPSRFSGSGSGTDFTLTISSLQPEDFATYYCQQSYTIPMTFGQGTKVEIK
notes: also called YW538.24.38; copies: 2 + 2
B1: in experiment [3], the binding result is reported as “binds”.

B2: 538.24.38: affinity matured variant of 538.24; VH SEQ ID NO: 21, VL SEQ ID NO: 25 (antibody, V domains shown)
VH: B1 VH
VL: DIQMTQSPSSLSASVGDRVTITCRASQDVSTAVAWYQQKPGKAPKLLIYSASFLYSGVPSRFSGSGSGTDFTLTISSLQPEDFATYYCQQSYTIPMTFGQGTKVEIKR
modifications: Heavy chain variable region; Light chain variable region
As for B2, the “blocking of 125I-NRG1β binding to Her3” value in [4] is “All but 538.24.38 are highly effective in blocking binding”.

B3: anti-NRG1 antibody 526.90.28 (antibody, human IgG1, kappa, V domains shown)
VH: EVQLVESGGGLVQPGGSLRLSCAASGFTFSDIAMSWVRQAPGKGLEWVSWIYPSGGNTYYADSVKGRFTISADTSKNTAYLQMNSLRAEDTAVYYCARSYILSQKSATWAFDYWGQGTLVTVSS
VL: DIQMTQSPSSLSASVGDRVTITCRASQSISSYLAWYQQKPGKAPKLLIYGASSRASGVPSRFSGSGSGTDFTLTISSLQPEDFATYYCQQSYSTPITFGQGTKVEIKR
notes: also called YW526.90.28
On to B3, for which, in [5], the “IC50 of inhibition of Her3 activation (phosphorylation), KIRA on MCF-7 cells, 0.2 nM rhNRG1b” value came out at 1.44 nM. In [6], the “IC50 of inhibition of Her3 activation (phosphorylation), KIRA on MCF-7 cells, 0.5 nM rhNRG1a” value was 13.9 nM. For the same molecule, the values for the Kd in experiment [7] and in [11] were 0.587 nM and 1.09 nM, respectively. Moreover, the koff came out at 0.000595 s⁻¹ in experiment [7] and 0.000367 s⁻¹ in [11]. Moreover, the results for the kon in experiment [7] and in [11] were 1.01e+06 M⁻¹ s⁻¹ and 337000 M⁻¹ s⁻¹, respectively. For the same molecule, the binding result in experiment [8], in experiment [9] and in experiment [10] was “no binding” in each case.
